T1: human CD19 on CD19(+) NALM6 acute lymphoid leukemia cells (UniProt P15391 20-556)
T1 chain: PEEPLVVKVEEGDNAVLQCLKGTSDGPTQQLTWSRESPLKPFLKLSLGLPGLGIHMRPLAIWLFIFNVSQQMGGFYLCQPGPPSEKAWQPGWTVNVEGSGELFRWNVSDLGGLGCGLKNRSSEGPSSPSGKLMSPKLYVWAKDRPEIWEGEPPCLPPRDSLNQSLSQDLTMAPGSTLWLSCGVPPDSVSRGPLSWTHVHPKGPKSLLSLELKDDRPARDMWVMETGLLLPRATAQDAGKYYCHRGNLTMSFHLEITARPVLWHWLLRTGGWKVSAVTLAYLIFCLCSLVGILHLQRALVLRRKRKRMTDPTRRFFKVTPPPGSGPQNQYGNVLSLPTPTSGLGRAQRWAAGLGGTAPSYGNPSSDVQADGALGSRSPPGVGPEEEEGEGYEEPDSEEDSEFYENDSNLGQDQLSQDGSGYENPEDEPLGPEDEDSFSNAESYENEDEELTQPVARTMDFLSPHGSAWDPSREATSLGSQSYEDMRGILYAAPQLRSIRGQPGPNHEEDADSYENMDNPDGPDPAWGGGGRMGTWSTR


Target: T1, human CD19 on CD19(+) NALM6 acute …
Assay: FACS

| EC50 | Binder |
| --- | --- |
| 0.1 µg/mL | L2+H8b (antibody, V domains shown) VH: QVQLQESGPGLVKPSETLSVTCTVSGVSLPDYGVSWIRQPPGKGLEWIGVIWGSETTYYNPSLKSRLTISKDTSKNQFSLKLSSVTAADTAVYYCAKHYYYGGSYAMDYWGQGTSVTVSS VL: DIQMTQSPSSLSASVGDRVTITCQASQDISKYLNWYQQKPGKAVKLLIYHTSRLHSGVPSRFSGSGSGTDYTLTISSLQPEDIATYFCQQGNTLPYTFGGGTKLEIT |
| 0.27 µg/mL | L2+H4 (antibody, V domains shown) VH: QVQLQESGPGLVKPSETLSLTCTVSGVSLPDYGVSWIRQPPGKGLEWIGVIWGSETTNYNPSLKSRVTISVDNSKNQFSLKLSSLTAADTAVYYCAKHYYYGGSYAMDYWGQGTSVTVSS VL: DIQMTQSPSSLSASVGDRVTITCQASQDISKYLNWYQQKPGKAVKLLIYHTSRLHSGVPSRFSGSGSGTDYTLTISSLQPEDIATYFCQQGNTLPYTFGGGTKLEIT |
| 0.08 µg/mL | L2+H6b (antibody, V domains shown) VH: QVQLQESGPGLVKPSETLSLTCTVSGVSLPDYGVSWIRQPPGKGLEWLGVIWGSETTYYNPSLKSRVTISVDNSKNQFSLKLSSVTAADTAVYYCAKHYYYGGSYAMDYWGQGTSVTVSS VL: DIQMTQSPSSLSASVGDRVTITCQASQDISKYLNWYQQKPGKAVKLLIYHTSRLHSGVPSRFSGSGSGTDYTLTISSLQPEDIATYFCQQGNTLPYTFGGGTKLEIT |
| 0.08 µg/mL | L1+H6b (antibody, V domains shown) VH: QVQLQESGPGLVKPSETLSLTCTVSGVSLPDYGVSWIRQPPGKGLEWLGVIWGSETTYYNPSLKSRVTISVDNSKNQFSLKLSSVTAADTAVYYCAKHYYYGGSYAMDYWGQGTSVTVSS VL: DIQMTQSPSSLSASVGDRVTITCRASQDISKYLNWYQQKPGKAVKLLIYHTSRLHTGVPSRFSGSGSGTDYTLTISSLQPEDIATYFCQQGNTLPYTFGGGTKLEIT |
| 0.19 µg/mL | L3+H1b (antibody, V domains shown) VH: QVQLQESGPGLVKPSETLSVTCTVSGVSLPDYGVSWIRQPPGKGLEWIGVIWGSETTYYNPSLKSRVTISVDTSKNQVSLKLSSVTAADTAVYYCAKHYYYGGSYAMDYWGQGTSVTVSS VL: DIQMTQSTSSLSASVGDRVTITCRASQDISKYLNWYQQKPGKAVKLLIYHTSRLHSGVPSRFSGSGSGTDYTFTISSLQPEDIATYYCQQGNTLPYTFGGGTKLEIT |
| 0.28 µg/mL | L3+H2b (antibody, V domains shown) VH: QVQLQESGPGLVKPSETLSLTCTVSGVSLPDYGVSWIRQPPGKGLEWLGVIWGSETTNYNPSLKSRVTISKDTSKNQFSLKLSSLTAADTAVYYCAKHYYYGGSYAMDYWGQGTSVTVSS VL: DIQMTQSTSSLSASVGDRVTITCRASQDISKYLNWYQQKPGKAVKLLIYHTSRLHSGVPSRFSGSGSGTDYTFTISSLQPEDIATYYCQQGNTLPYTFGGGTKLEIT |
| 0.08 µg/mL | L3+H7b (antibody, V domains shown) VH: QVQLQESGPGLVKPSETLSLTCTVSGVSLPDYGVSWIRQPPGKGLEWIGVIWGSETTYYNPSLKSRVTISKDTSKSQFSLKMSSVTAADTAVYYCAKHYYYGGSYAMDYWGQGTSVTVSS VL: DIQMTQSTSSLSASVGDRVTITCRASQDISKYLNWYQQKPGKAVKLLIYHTSRLHSGVPSRFSGSGSGTDYTFTISSLQPEDIATYYCQQGNTLPYTFGGGTKLEIT |
| 0.37 µg/mL | L1+H3 (antibody, V domains shown) VH: QVQLQESGPGLVKPSETLSLTCTVSGVSLPDYGVSWIRQPPGKGLEWIGVIWGSETTNYNPSLKSRLTISVDTSKNQFSLKMSSVTAADTAVYYCAKHYYYGGSYAMDYWGQGTSVTVSS VL: DIQMTQSPSSLSASVGDRVTITCRASQDISKYLNWYQQKPGKAVKLLIYHTSRLHTGVPSRFSGSGSGTDYTLTISSLQPEDIATYFCQQGNTLPYTFGGGTKLEIT |
| 0.17 µg/mL | L2+H2b (antibody, V domains shown) VH: QVQLQESGPGLVKPSETLSLTCTVSGVSLPDYGVSWIRQPPGKGLEWLGVIWGSETTNYNPSLKSRVTISKDTSKNQFSLKLSSLTAADTAVYYCAKHYYYGGSYAMDYWGQGTSVTVSS VL: DIQMTQSPSSLSASVGDRVTITCQASQDISKYLNWYQQKPGKAVKLLIYHTSRLHSGVPSRFSGSGSGTDYTLTISSLQPEDIATYFCQQGNTLPYTFGGGTKLEIT |
| 0.1 µg/mL | CD19-BsAb BC250 (hFMC63 VL-2/VH-1b x CD3 IgG-scFv bispecific antibody) (bispecific antibody) heavy: not shown light: DIQMTQSPSSLSASVGDRVTITCQASQDISKYLNWYQQKPGKAVKLLIYHTSRLHSGVPSRFSGSGSGTDYTLTISSLQPEDIATYFCQQGNTLPYTFGGGTKLEITRTVAAPSVFIFPPSDEQLKSGTASVVCLLNNFYPREAKVQWKVDNALQSGNSQESVTEQDSKDSTYSLSSTLTLSKADYEKHKVYACEVTHQGLSSPVTKSFNRGECTSGGGGSGGGGSGGGGSQVQLVQSGGGVVQPGRSLRLSCKASGYTFTRYTMHWVRQAPGKCLEWIGYINPSRGYTNYNQKFKDRFTISRDNSKNTAFLQMDSLRPEDTGVYFCARYYDDHYSLDYWGQGTPVTVSSGGGGSGGGGSGGGGSGGGGSGGGGSGGGGSDIQMTQSPSSLSASVGDRVTITCSASSSVSYMNWYQQTPGKAPKRWIYDTSKLASGVPSRFSGSGSGTDYTFTISSLQPEDIATYYCQQWSSNPFTFGCGTKLQITR |

Second part, the binder before the results:

| Binder | EC50 |
| --- | --- |
| L2+H5b (antibody, V domains shown) VH: QVQLQESGPGLVKPSETLSLTCTVSGVSLPDYGVSWIRQPPGKGLEWIGVIWGSETTNYNPSLKSRVTISKDTSKSQVSLKLSSVTAADTAVYYCAKHYYYGGSYAMDYWGQGTSVTVSS VL: DIQMTQSPSSLSASVGDRVTITCQASQDISKYLNWYQQKPGKAVKLLIYHTSRLHSGVPSRFSGSGSGTDYTLTISSLQPEDIATYFCQQGNTLPYTFGGGTKLEIT | 0.19 µg/mL |
| L1+H4 (antibody, V domains shown) VH: QVQLQESGPGLVKPSETLSLTCTVSGVSLPDYGVSWIRQPPGKGLEWIGVIWGSETTNYNPSLKSRVTISVDNSKNQFSLKLSSLTAADTAVYYCAKHYYYGGSYAMDYWGQGTSVTVSS VL: DIQMTQSPSSLSASVGDRVTITCRASQDISKYLNWYQQKPGKAVKLLIYHTSRLHTGVPSRFSGSGSGTDYTLTISSLQPEDIATYFCQQGNTLPYTFGGGTKLEIT | 0.25 µg/mL |
| L1+H8b (antibody, V domains shown) VH: QVQLQESGPGLVKPSETLSVTCTVSGVSLPDYGVSWIRQPPGKGLEWIGVIWGSETTYYNPSLKSRLTISKDTSKNQFSLKLSSVTAADTAVYYCAKHYYYGGSYAMDYWGQGTSVTVSS VL: DIQMTQSPSSLSASVGDRVTITCRASQDISKYLNWYQQKPGKAVKLLIYHTSRLHTGVPSRFSGSGSGTDYTLTISSLQPEDIATYFCQQGNTLPYTFGGGTKLEIT | 0.13 µg/mL |
| L1+H1b (antibody, V domains shown) VH: QVQLQESGPGLVKPSETLSVTCTVSGVSLPDYGVSWIRQPPGKGLEWIGVIWGSETTYYNPSLKSRVTISVDTSKNQVSLKLSSVTAADTAVYYCAKHYYYGGSYAMDYWGQGTSVTVSS VL: DIQMTQSPSSLSASVGDRVTITCRASQDISKYLNWYQQKPGKAVKLLIYHTSRLHTGVPSRFSGSGSGTDYTLTISSLQPEDIATYFCQQGNTLPYTFGGGTKLEIT | 0.13 µg/mL |
| L3+H4 (antibody, V domains shown) VH: QVQLQESGPGLVKPSETLSLTCTVSGVSLPDYGVSWIRQPPGKGLEWIGVIWGSETTNYNPSLKSRVTISVDNSKNQFSLKLSSLTAADTAVYYCAKHYYYGGSYAMDYWGQGTSVTVSS VL: DIQMTQSTSSLSASVGDRVTITCRASQDISKYLNWYQQKPGKAVKLLIYHTSRLHSGVPSRFSGSGSGTDYTFTISSLQPEDIATYYCQQGNTLPYTFGGGTKLEIT | 0.42 µg/mL |
| L1+H7b (antibody, V domains shown) VH: QVQLQESGPGLVKPSETLSLTCTVSGVSLPDYGVSWIRQPPGKGLEWIGVIWGSETTYYNPSLKSRVTISKDTSKSQFSLKMSSVTAADTAVYYCAKHYYYGGSYAMDYWGQGTSVTVSS VL: DIQMTQSPSSLSASVGDRVTITCRASQDISKYLNWYQQKPGKAVKLLIYHTSRLHTGVPSRFSGSGSGTDYTLTISSLQPEDIATYFCQQGNTLPYTFGGGTKLEIT | 0.07 µg/mL |
| L2+H7b (antibody, V domains shown) VH: QVQLQESGPGLVKPSETLSLTCTVSGVSLPDYGVSWIRQPPGKGLEWIGVIWGSETTYYNPSLKSRVTISKDTSKSQFSLKMSSVTAADTAVYYCAKHYYYGGSYAMDYWGQGTSVTVSS VL: DIQMTQSPSSLSASVGDRVTITCQASQDISKYLNWYQQKPGKAVKLLIYHTSRLHSGVPSRFSGSGSGTDYTLTISSLQPEDIATYFCQQGNTLPYTFGGGTKLEIT | 0.06 µg/mL |
| L1+H5b (antibody, V domains shown) VH: QVQLQESGPGLVKPSETLSLTCTVSGVSLPDYGVSWIRQPPGKGLEWIGVIWGSETTNYNPSLKSRVTISKDTSKSQVSLKLSSVTAADTAVYYCAKHYYYGGSYAMDYWGQGTSVTVSS VL: DIQMTQSPSSLSASVGDRVTITCRASQDISKYLNWYQQKPGKAVKLLIYHTSRLHTGVPSRFSGSGSGTDYTLTISSLQPEDIATYFCQQGNTLPYTFGGGTKLEIT | 0.18 µg/mL |
| L1+H2b (antibody, V domains shown) VH: QVQLQESGPGLVKPSETLSLTCTVSGVSLPDYGVSWIRQPPGKGLEWLGVIWGSETTNYNPSLKSRVTISKDTSKNQFSLKLSSLTAADTAVYYCAKHYYYGGSYAMDYWGQGTSVTVSS VL: DIQMTQSPSSLSASVGDRVTITCRASQDISKYLNWYQQKPGKAVKLLIYHTSRLHTGVPSRFSGSGSGTDYTLTISSLQPEDIATYFCQQGNTLPYTFGGGTKLEIT | 0.23 µg/mL |

— US20220177579A1 (published 2022)
